Laboratory results taken from the supplement of paper PMC12042874.
± gives the uncertainty stated by the source.

Assay: amyloid nucleation score (Sup35N fusion, yeast selection) (log enrichment); library NNK3; higher = more nucleation; inactive = no reads after selection
How it was run: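 The nucleation score is the log enrichment of output over input reads, calculated with DiMSum and centred on the mode score of non-aggregating sequences. Sequences with under 100 input reads were excluded. Reads came from Illumina sequencing of plasmid inserts from psi-negative yeast expressing Sup35N fused to peptides of 20 random codons, induced 24 hours with 100 μM copper sulfate and grown 7 days at 30°C without adenine and uracil.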

Amyloid nucleation score, 1.27 ± 0.1:
ALHFDFIFIYRDRCCCCTFY

Amyloid nucleation score, 1.36 ± 0.087:
ANCVALTIVSYQVARDMKSK

Amyloid nucleation score, 0.732 ± 0.34:
CDFIHCLVCFLPIWKSCGTE

Amyloid nucleation score, 0.223 ± 0.38:
ASAYGSSLYSRFTVEYNSII

Amyloid nucleation score, 2.19 ± 0.071:
CFCFARFKFR

Amyloid nucleation score, 1.34 ± 0.092:
CFTLFVSQYVNDLDDYKRNW

Amyloid nucleation score, 2.51 ± 0.06:
CFVVNCHYFDFMDV

Amyloid nucleation score, 1.83 ± 0.092:
AVSSVLIHALYLVGMLPPSN

Amyloid nucleation score, 0.644 ± 0.2:
ARIYCSWYPLYTFYLIHSH

Amyloid nucleation score, 1.45 ± 0.12:
AENINCKMM

Amyloid nucleation score, -0.074 ± 0.53:
AKYFKFKHNVKGVHWKHVPE

Amyloid nucleation score, -0.074 ± 0.64:
CFAYCFLSLFEMRIWTN

Amyloid nucleation score, 1.79 ± 0.1:
ASFYWECMYVHGDVFLCVWY

Amyloid nucleation score, 1.28 ± 0.1:
ATTVNGFIISHRVYNAGSWY

Amyloid nucleation score, 2.06 ± 0.057:
AVWYRNI

Amyloid nucleation score, 0.66 ± 0.17:
CDTFVVNMSQFLSISTMAER

Amyloid nucleation score, 1.11 ± 0.095:
CFHVILFK

Amyloid nucleation score, 1.12 ± 0.099:
CFCVDADIIRTLMVCDIILS

Amyloid nucleation score, 0.718 ± 0.17:
CCNFWRMPMTLCRNSCSSST

Amyloid nucleation score, 0.088 ± 0.88:
AYRVVQTGDLHGRCAWIVNV

Amyloid nucleation score, 2.17 ± 0.084:
CCGMYYNSMASNVWSER

Amyloid nucleation score, 1.38 ± 0.082:
CFVFTFGT

Amyloid nucleation score, 2.24 ± 0.054:
CFFLYCLNFFMRSIERDRDG

Amyloid nucleation score, 0.216 ± 0.56:
AYLLSIANCFSAVYLHPSDS

Amyloid nucleation score, 0.572 ± 0.28:
ARLVAGCVMCHGSLWEMIRE

Amyloid nucleation score, -0.055 ± 0.82:
AVCPSISTLSCGQ

Amyloid nucleation score, 1.13 ± 0.087:
AACYINMCIGIVYGYSFLSF

Amyloid nucleation score, -0.424 ± 0.75:
AVVLFLGTLQLGCLGLIVQL

Amyloid nucleation score, inactive:
AAIYYLSRAECNFSRYKNYL
AAMHLDILNGTATRLSYSCA
AANLGRSIPESSRKGIGFNF
ACCRSNDYDSYTPFDVVNHW
ACLLKSYFSRYNEKPTCYVT
ACSDFSE
ACSRRERY
ACTFITRMYCGWHSS
ACTIMWSSLKSIT
ACTRYCWHYFVNIVWCESDF
ACYFWS
ADFTRGGT
ADKIRIRFY
ADLRIRSSSCRPSADINFG
ADPSMVNVICHGLSDRGSY
ADSLRCVSWFSD
ADTTCHFACKPKLDFLRKTT
AELVNIF
AENLVWRVMAYSARSTADYG
AESICALTML
AEWWSTVCH
AEWYIRITGDICLDPYLCKN
AFFSFNAD
AFKWSRSCGMWLTDIGAWW
AFMVKYSSVLYVCNLALGRA
AFNVIRYVVWFSMVRASNAS
AFYYWVDEMVSLNIRLSFYN
AGDGHLSLS
AGFSVVSRPLFVRQLPV
AGIRYTNYFSSMGSIGGDGV
AGPVMRRLFVNGWFVVFGRM
AGSPCWSNHHYMTKRDCRFS
AHGEMRAVKPINFKACWRCL
AHRLHSLINSLTLSNRSMM
AHVLVSFCFSFTRSVKFGLV
AICAVPRTKMMIQRTSSNRS
AIERIFHCGETVIFMTGHLL
AIFHGIRCSFMSSSLYTNDG
AIFRS
AIKVGASIINFLWLAHVWCP
AINVRRSLTTYPNFLDTVRS
AIYAYTFAKRPSCEQATRVS
AKCMSDFVECRKSRRMMAGW
AKDMEGGQHNDGSDRRNERW
AKSKSIRERLVVFEASQTRY
AKYIEHGYCF
ALDIDWFYWYRHQSSPSFFY
ALGTSEGRLQLSYDNHGVVL
ALMMRLFFRIRSTMCCWVCS
ALQLHWYYRDTRRRCFTVCV
ALSVSSLALANDDVTG
ALYWTEYQ
AMIINLRMWYNLRIIIMGTR
AMNNAGSGKQEYNRYGEIIN
AMNNLLFTLYVF
AMQAAPVCRRYAVVTTHFDH
AMSIVERQGDVWLSYRKWNG
AMTRCGECGHRMGKASAGMW
ANAISWGYLIKDYS
ANESMWYSLMLTVFVLAGCM
ANGLWKRIAFEGTARCEGMG
ANTFVSSWFVTTNRQKTERG
ANVDTIDFASAVILF
APAKTYIACC
APIKIRFD
APRGVVLPWTLDIASSLLTP
APRLFINY
ARASVFAMGDTPLWSG
ARFLYAVVLRWFIMEYRAGT
ARIFH
ARNFLVRIWHCDRFSDCGII
ARPMIPMCLLQRAMYPLYSP
ARRGLPVARIIFSHDPNL
ARWVWDIKETVTLV
ASAFYRCVGGIVYVHTIVGV
ASANLRILYLWTIGNVLNAY
ASDGCSLRVAPVTQSPLWVS
ASDNWESRPSRSSDKSGVIG
ASDRMKGVLNLLQYVGYSSM
ASFISCSIMYYFIVFCL
ASGLDIISSSNKLH
ASVYTN
ATGLWGICGWTPDTNHLQVM
ATICYEVRWEPDSSPGRS
AVALY
AVCWLRMTYGLRLEVGSPVD
AVDQGGLAYRGRRC
AVLHNMGFSHILAQLV
AVNPRQFKFTVDEKSIGRVA
AWISGHVRVKLSFRLTFFLK
AWKLKFFVFNSLSVIT
AWKTLAHRQSWGGCNRA
AWLSLVCVDVGTTPFSHNDR
AWTTQPPYMFSSGFWNFYVC
AYCPKTALEVY
AYCVFHSIYGV
AYIKWNVDCRLKTHNDGYFL
AYNQSRILGVDLACRNELLC
AYNSYELVRAL
AYSYRGHGLGMDGAGPVCLI
AYWESNSIPR
CAESIRHRRP
CAITAQARV
CALYFVWAWWERRRKMYYA
CAMTLRTFFQPPPITTSKYC
CAVYFLR
CCHSITFLVNLGMRERKNKV
CCIKGHFPSSFGSWAKYLHV
CCLPSYSVGCRASGDDSW
CCLYTVNNSDSLVNTTVGVG
CCRDVYTEGDM
CCVMHDE
CDMDVFLSNMPSSVVNRSG
CEYVNKLHTVGVHWGTGSRE
CFAVWHISVEMYVRDRW
CFDWYFDNDTRFIVGAMLVW
CFGHYSMN
CFLYLLLQTN
CFPIASHGDSCGMIAA
CFQDRQKLF
CFSVGKWSIFRN
CFSYGMWNSLPRWLALN
CFSYSLGVLVTYRGCYRSVL
CFVDFYSWWLSITVQGLHNN
CFVFWKSRQIYWMMMSRCVV
CFVYRTLISNLFSIWHSLQF
CFYIKKSKVGLGHWINHV
CGEYMRCLNVEYRCVGVKGS
CGPFGFMCDAVGSAQFDIMM

Amyloid nucleation score, 1.69 ± 0.086:
ANCPMHRLTAGNSLCLWTW
